Measured values reported in US20230097573A1 (LG CHEM, published 2023).

Assays:
Hu FcRn (BPS Bioscience) [1] = biological target: T1, Hu FcRn (BPS Bioscience) (human, UniProt P55899 24-297; P61769 21-119); assay: ELISA, huFcRn coated, purified Affimer fusion, pH 7.4
T1 construct: Bought recombinant protein coated on ELISA plates; also called human FcRn; human neonatal Fc receptor
Protocol: (§1) The binding of AFFIMER® to hu-FcRn was evaluated by enzyme linked immunosorbent assay (ELISA) in 384 well plate format. Hu FcRn (BPS Bioscience) was coated at 5 μg/ml on the plate in PBS, pH 7.4. Plates were washed 3 times with 100 ul of washing buffer (PBS, Tween 20 0.05%, pH 7.4) with a plate washer and saturated with Casein 5% (Sigma) in MES pH 7.4 for 60 minutes at room temperature (25±1° C.). Plates were washed as described previously. AFFIMER® and controls (mAb anti hFcRn (ADM31), blank) were then diluted in duplicate, and loaded on the plate for 90 minutes at room temperature (25±1° C.). Plates were washed 3 times as described previously. Biotinylated polyclonal antibody anti Cystatin (R&D Systems) was then diluted in dilution Buffer (1% casein, 0.01% Tween 20, and 8 mM MES. It is in pH7.4) and incubated 60 minutes at room temperature (25±1° C.). Plates were washed 3 times as described previously and Streptavidin HRP (N200, thermo-Fisher) was incubated for 30 minutes at room temperature (25±1° C.). Plates were washed and the substrate (TMB, Pierce Thermo-Scientific) was added in the plate for 8±1 minute. The reaction was stopped using an acidic solution and plates were read at 450-630 nm. The EC₅₀ was then calculated using the interpolated non-linear four-parameters standard curve (FIGS. 5A-5B, Table 5A).

Hu FcRn (BPS Bioscience) [2] = biological target: T1, Hu FcRn (BPS Bioscience); assay: ELISA, huFcRn coated; ratio of the EC50 at the two pH values
Protocol: (§2) The binding of AFFIMER® to hu-FcRn was evaluated by enzyme linked immunosorbent assay (ELISA) in 384 well plate format. Hu FcRn (BPS Bioscience) was coated at 5 μg/ml on the plate in 40 mM MES, pH 6. Plates were washed 3 times with 100 ul of washing buffer (PBS, Tween 20 0.05%, pH 6) with a plate washer and saturated with Casein 5% (Sigma) in MES pH 6 for 60 minutes at room temperature (25±1° C.). Plates were washed as described previously. AFFIMER® and negative controls (mAb anti hFcRn (clone ADM31), negative controls) were then diluted in duplicate, and loaded on the plate for 90 minutes at room temperature (25±1° C.). Plates were washed 3 times as described previously. Biotinylated polyclonal antibody anti Cystatin (R&D Systems) was then diluted in dilution buffer (1% casein, 0.05% Tween 20, and 8 mM MES, pH 6) and incubated 60 minutes at room temperature (25±1° C.). Plates were washed 3 times as described previously and Streptavidin HRP (N200, Thermo-Fisher) was incubated for 30 minutes at room temperature (25±1° C.). Plates were washed and the substrate (TMB, Pierce Thermo-Scientific) was added in the plate for 8±1 minute. The reaction was stopped using an acidic solution and plates were read at 450-630 nm. The EC₅₀ was then calculated using the interpolated non-linear four-parameters standard curve (FIGS. 5A-5B and Table 5A).
The binding of AFFIMER® to hu-FcRn was evaluated by enzyme linked immunosorbent assay (ELISA) in 384 well plate format. Hu FcRn (BPS Bioscience) was coated at 5 μg/ml on the plate in PBS, pH 7.4. Plates were washed 3 times with 100 ul of washing buffer (PBS, Tween 20 0.05%, pH 7.4) with a plate washer and saturated with Casein 5% (Sigma) in MES pH 7.4 for 60 minutes at room temperature (25±1° C.). Plates were washed as described previously. AFFIMER® and controls (mAb anti hFcRn (ADM31), blank) were then diluted in duplicate, and loaded on the plate for 90 minutes at room temperature (25±1° C.). Plates were washed 3 times as described previously. […]

Hu FcRn (BPS Bioscience) [3] = biological target: T1, Hu FcRn (BPS Bioscience); assay: ELISA, huFcRn coated, purified Affimer fusion, pH 6
Protocol: as §2

Hu FcRn (BPS Bioscience) [4] = biological target: T1, Hu FcRn (BPS Bioscience); assay: ELISA, huFcRn coated, pH 7.4
Protocol: as §1, with “μl” for “ul”, “pH 7.4)” for “pH7.4)”, “nm.” for “nm. The EC₅₀ was then calculated using the interpolated non-linear four-parameters standard curve (FIGS. 5A-5B, Table 5A).”

Hu FcRn (BPS Bioscience) [5] = biological target: T1, Hu FcRn (BPS Bioscience); assay: ELISA, huFcRn coated, purified Affimer, pH 6
Protocol: as §2

Hu FcRn (BPS Bioscience) [6] = biological target: T1, Hu FcRn (BPS Bioscience); assay: ELISA, huFcRn coated, pH 6
Protocol: The binding of AFFIMER® to Hu-FcRn was evaluated by enzyme linked immunosorbent assay (ELISA) in 384 well plate format. Hu FcRn (BPS Bioscience) was coated at 5 μg/ml on the plate in 40 mM MES, pH 6. Plates were washed 3 times with 100 μl of washing buffer (PBS, Tween 20 0.05%, pH 6) with a plate washer and saturated with Casein 5% (Sigma) in MES pH6 for 60 minutes at room temperature (25±1° C.). Plates were washed as described previously. AFFIMER® and negative controls (mAb anti hFcRn (clone ADM31), negative controls) were then diluted in duplicate, and loaded on the plate for 90 minutes at room temperature (25±1° C.). Plates were washed 3 times as described previously. Biotinylated polyclonal antibody anti Cystatin (R&D Systems) was then diluted in dilution Buffer (1% casein, 0.05% Tween 20, and 8 mM MES. It is in pH6) and incubated 60 minutes at room temperature (25±1° C.). Plates were washed 3 times as described previously and Streptavidin HRP (N200, thermo-Fisher) was incubated for 30 minutes at room temperature (25±1° C.). Plates were washed and the substrate (TMB, Pierce Thermo-Scientific) was added in the plate for 8±1 minute. The reaction was stopped using an acidic solution and plates were read at 450-630 nm. The EC50 was then calculated using the interpolated non-linear four-parameters standard curve (Table 4).

Hu FcRn (BPS Bioscience) [7] = biological target: T1, Hu FcRn (BPS Bioscience); assay: ELISA, huFcRn coated, purified Affimer, pH 7.4
Protocol: as §1

T1 sequence (P55899 24-297 limits assumed, chain 1 of 2): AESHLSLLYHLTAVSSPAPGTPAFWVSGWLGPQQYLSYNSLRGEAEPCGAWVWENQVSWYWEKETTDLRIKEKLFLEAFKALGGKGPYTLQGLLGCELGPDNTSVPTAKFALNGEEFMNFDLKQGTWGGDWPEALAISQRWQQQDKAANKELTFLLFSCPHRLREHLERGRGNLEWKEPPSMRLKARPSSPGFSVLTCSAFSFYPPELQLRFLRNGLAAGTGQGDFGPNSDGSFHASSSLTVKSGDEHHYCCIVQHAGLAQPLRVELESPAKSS
T1 sequence (P61769 21-119 limits assumed, chain 2 of 2): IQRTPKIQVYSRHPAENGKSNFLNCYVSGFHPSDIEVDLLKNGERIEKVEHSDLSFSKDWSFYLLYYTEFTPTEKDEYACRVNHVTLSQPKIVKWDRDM

Row | Binder | EC50 (Hu FcRn (BPS Bioscience) [1]) [nM] | pH 6/pH 7.4 (EC50 ratio) (Hu FcRn (BPS Bioscience) [2]) | EC50 (Hu FcRn (BPS Bioscience) [3]) [nM] | EC50 (Hu FcRn (BPS Bioscience) [4]) [nM] | EC50 (Hu FcRn (BPS Bioscience) [5]) [nM] | EC50 (Hu FcRn (BPS Bioscience) [6]) [nM] | EC50 (Hu FcRn (BPS Bioscience) [7]) [nM]
1 | AVA04-251 FX6 (designed binder) MIPRGLSEAKPATPEIQEIVDKVKPQLEEKTNETYGKLEAVQYKTQVLALSFNNYHWHSTNYYIKVRAGDNKYMHLKVFNGPKLRHDKLTHADRVLTGYQVDKNKDDELTGFAEAAAKEAAAKEAAAKEAAAKEAAAKEAAAKMIPRGLSEAKPATPEIQEIVDKVKPQLEEKTNETYGKLEAVQYKTQVLAREGRQDWVLSTNYYIKVRAGDNKYMHLKVFNGPWVPFPHQQLADRVLTGYQVDKNKDDELTGFAEAAAKEAAAKEAAAKEAAAKEAAAKEAAAKMIPRGLSEAKPATPEIQEIVDKVKPQLEEKTNETYGKLEAVQYKTQVLAREGRQDWVLSTNYYIKVRAGDNKYMHLKVFNGPWVPFPHQQLADRVLTGYQVDKNKDDELTGFHHHHHH | 4.3 | 143 | 0.03 |  |  |  | 
2 | FcRn-38 (designed binder, AFFIMER (stefin A variant); also called LGC01-38) MIPRGLSEAKPATPEIQEIVDKVKPQLEEKTNETYGKLEAVQYKTQVLALSFNNYHWHSTNYYIKVRAGDNKYMHLKVFNGPKLRHDKLTHADRVLTGYQVDKNKDDELTGFHHHHHH |  | 167 |  | 0.895 | 0.003 | 0.14 | 0.5
3 | FcRn-35 (designed binder, AFFIMER (stefin A variant); also called LGC01-35) MIPRGLSEAKPATPEIQEIVDKVKPQLEEKTNETYGKLEAVQYKTQVLAHRQYPPGPHSTNYYIKVRAGDNKYMHLKVFNGPYHFHHYYKHADRVLTGYQVDKNKDDELTGFHHHHHH |  | 168 |  | 225 | 0.673 | 47.9 | 113
